Data taken from paper PMC8447495, “Dissecting Monomer-Dimer Equilibrium of an RNase P Protein Provides Insight Into the Synergistic Flexibility of 5’ Leader Pre-tRNA Recognition” (Frontiers in Molecular Biosciences, 2021).

Biological target: the molecule itself
Assay: NMR (preliminary experiments); highly purified P protein at 25°C

B1: Thermotoga maritima RNase P protein (natural protein)
chain: TESFTRRERLRLRRDFLLIFKEGKSLQNEYFVVLFRKNGLDYSRLGIVVKRKFGKATRRNKLKRWVREIFRRNKGVIPKGFDIVVIPRKKLSEEFERVDFWTVREKLLNLLKRIEG
modifications: 15N, 13C-labeled
notes: RNase P protein component (rnpA gene) of Thermotoga maritima; numbering corresponds to UniProtKB Q9X1H4; Exists as monomer and dimer in equilibrium in solution; the preparation follows Zeng et al., 2018; also called T. maritima RNase P protein; source: E. coli BL21 Gold, M9 minimal media, purified (thrombin-treated lysate, denaturation-renaturation, 15S cation exchange); not shown: GST, …
With B1 the “stoichiometry N” value was 2.
